From the supplement of paper PMC10065799, “High-throughput profiling of sequence recognition by tyrosine kinases and SH2 domains using bacterial peptide display” (eLife, 2023)

Assays:
MERTK = MERTK (UniProt Q12866); test: phosphorylation enrichment, bacterial display (enrichment ratio); higher = better substrate or ligand; peptides without Tyr show the background
c-Abl (mouse) = test: as above
Fyn = Fyn (UniProt P06241); test: as above
FGFR3 = FGFR3 (UniProt P22607); test: as above
Fes = Fes (UniProt P07332); test: as above
FGFR1 = FGFR1 (UniProt P11362); test: as above
Sequence of FGFR1 (P11362 whole entry, looked up): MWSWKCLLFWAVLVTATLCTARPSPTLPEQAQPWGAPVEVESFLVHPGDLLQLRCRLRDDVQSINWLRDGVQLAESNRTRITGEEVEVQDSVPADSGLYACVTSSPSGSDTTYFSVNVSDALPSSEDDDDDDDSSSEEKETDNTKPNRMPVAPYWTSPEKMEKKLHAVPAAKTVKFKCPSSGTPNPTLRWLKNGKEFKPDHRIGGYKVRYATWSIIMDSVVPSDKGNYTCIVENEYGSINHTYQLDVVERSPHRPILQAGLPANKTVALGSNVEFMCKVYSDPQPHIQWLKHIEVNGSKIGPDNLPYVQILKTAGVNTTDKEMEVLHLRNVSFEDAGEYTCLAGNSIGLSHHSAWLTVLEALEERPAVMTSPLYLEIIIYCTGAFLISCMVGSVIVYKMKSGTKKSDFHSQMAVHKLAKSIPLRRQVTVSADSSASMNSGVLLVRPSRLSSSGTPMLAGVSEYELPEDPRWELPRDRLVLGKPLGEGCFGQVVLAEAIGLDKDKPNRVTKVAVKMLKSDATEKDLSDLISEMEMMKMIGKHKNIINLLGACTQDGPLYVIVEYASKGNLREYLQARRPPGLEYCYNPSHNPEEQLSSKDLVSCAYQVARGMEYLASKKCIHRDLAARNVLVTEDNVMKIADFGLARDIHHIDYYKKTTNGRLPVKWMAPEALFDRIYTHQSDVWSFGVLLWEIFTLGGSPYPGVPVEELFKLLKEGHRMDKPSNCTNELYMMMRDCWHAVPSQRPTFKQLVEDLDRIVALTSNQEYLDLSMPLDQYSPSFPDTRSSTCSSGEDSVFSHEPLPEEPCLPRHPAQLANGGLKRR

EPHB2 = EPHB2 (UniProt P29323); test: as above
c-Src = test: as above
AncSZ = test: as above
Fer (mouse) = test: as above
Jak2 = Jak2 (UniProt O60674); test: as above
Sequence of Jak2 (O60674 whole entry, looked up): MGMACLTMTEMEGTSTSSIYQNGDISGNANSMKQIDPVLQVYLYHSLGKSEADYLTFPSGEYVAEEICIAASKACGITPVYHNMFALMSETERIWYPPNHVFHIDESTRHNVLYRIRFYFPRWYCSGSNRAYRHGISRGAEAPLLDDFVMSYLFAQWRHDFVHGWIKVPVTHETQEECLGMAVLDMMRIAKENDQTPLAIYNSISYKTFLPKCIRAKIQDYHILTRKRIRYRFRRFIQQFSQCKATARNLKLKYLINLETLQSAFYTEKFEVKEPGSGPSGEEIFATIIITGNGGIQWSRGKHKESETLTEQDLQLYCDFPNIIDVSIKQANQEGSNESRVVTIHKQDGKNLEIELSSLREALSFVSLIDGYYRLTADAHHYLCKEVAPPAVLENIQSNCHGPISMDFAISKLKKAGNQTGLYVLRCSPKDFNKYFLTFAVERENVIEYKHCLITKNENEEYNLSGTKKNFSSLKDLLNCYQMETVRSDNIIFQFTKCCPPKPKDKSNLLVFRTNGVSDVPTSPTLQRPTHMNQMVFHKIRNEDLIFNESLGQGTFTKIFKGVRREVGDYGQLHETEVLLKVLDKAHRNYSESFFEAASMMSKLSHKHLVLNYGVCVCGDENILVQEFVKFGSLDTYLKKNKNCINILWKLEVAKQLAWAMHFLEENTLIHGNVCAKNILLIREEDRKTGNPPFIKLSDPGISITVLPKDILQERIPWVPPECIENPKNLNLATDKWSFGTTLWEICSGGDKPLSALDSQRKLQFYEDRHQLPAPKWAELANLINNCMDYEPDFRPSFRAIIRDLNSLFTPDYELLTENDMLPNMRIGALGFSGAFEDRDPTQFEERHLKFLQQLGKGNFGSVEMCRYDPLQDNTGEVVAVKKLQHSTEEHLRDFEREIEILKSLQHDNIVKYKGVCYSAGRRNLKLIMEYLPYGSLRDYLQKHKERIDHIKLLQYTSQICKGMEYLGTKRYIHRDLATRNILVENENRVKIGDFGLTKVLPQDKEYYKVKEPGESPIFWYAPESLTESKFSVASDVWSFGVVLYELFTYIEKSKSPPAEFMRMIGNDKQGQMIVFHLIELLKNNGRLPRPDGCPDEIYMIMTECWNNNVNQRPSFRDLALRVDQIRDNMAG

EPHB1 = EPHB1 (UniProt P54762); test: as above
Sequence of EPHB1 (P54762 whole entry, looked up): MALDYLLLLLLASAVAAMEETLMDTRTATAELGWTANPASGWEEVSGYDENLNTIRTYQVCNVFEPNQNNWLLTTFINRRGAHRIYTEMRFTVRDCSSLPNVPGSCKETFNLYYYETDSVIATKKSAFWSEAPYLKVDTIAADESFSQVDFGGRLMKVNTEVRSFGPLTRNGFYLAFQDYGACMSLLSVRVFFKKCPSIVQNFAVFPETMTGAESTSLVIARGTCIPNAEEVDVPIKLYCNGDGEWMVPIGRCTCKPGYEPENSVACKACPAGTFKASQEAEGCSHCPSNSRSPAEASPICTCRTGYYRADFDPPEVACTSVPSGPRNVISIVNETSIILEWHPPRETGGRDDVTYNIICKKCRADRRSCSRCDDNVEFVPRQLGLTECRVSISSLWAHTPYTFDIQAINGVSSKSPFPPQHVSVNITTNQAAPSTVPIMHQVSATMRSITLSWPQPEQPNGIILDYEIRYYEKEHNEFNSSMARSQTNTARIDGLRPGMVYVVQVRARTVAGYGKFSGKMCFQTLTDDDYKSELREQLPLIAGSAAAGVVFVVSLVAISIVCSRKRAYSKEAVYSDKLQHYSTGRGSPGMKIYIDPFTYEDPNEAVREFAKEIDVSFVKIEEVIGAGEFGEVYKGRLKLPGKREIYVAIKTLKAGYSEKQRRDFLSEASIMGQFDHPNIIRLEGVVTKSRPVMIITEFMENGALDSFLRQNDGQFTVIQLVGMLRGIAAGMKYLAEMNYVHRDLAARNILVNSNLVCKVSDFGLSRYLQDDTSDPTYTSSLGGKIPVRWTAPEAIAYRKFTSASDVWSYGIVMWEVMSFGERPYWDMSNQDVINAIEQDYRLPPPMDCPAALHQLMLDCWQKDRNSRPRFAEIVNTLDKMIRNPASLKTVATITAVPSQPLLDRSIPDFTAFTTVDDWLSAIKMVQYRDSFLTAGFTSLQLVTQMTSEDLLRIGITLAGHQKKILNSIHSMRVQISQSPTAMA

Hck = Hck (UniProt P08631); test: as above
Sequence of Hck (P08631 whole entry, looked up): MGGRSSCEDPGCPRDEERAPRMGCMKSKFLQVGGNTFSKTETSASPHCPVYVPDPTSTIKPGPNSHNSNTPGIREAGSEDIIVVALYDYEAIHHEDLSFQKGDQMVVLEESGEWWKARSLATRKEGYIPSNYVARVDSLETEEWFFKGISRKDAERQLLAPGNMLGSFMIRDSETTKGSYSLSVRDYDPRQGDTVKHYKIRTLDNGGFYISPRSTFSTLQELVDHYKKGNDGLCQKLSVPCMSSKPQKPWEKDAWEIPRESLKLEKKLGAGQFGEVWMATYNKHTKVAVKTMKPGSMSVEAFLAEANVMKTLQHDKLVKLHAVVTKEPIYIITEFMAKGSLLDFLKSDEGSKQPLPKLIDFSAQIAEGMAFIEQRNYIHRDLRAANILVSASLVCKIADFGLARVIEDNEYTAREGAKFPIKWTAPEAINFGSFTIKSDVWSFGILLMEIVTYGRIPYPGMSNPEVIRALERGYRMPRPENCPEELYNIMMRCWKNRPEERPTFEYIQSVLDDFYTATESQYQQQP

c-Src SH2 = test: SH2 binding enrichment of the phosphorylated peptide, bacterial display (enrichment ratio); higher = better substrate or ligand; peptides without Tyr show the background
SHP2-C SH2 = test: as above
Grb2 SH2 = Grb2 SH2 (UniProt P62993); test: as above
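For SH2 binding enrichment of the phosphorylated peptide, bacterial display in this document: peptide library displayed on the E. coli surface as eCPX fusions, selected cells deep-sequenced, score is each peptide's frequency after selection divided by its frequency in the input.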
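For phosphorylation enrichment, bacterial display in this document: 11-residue human phosphosite peptides and single-mutation variants displayed on the E. coli surface, counted by deep sequencing, each peptide's frequency after selection divided by its frequency in the unselected input library; frequency after pTyr selection over input frequency; kinase dosed for 20-30% of maximal phosphorylation in three min.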

Sequence of MERTK (Q12866 whole entry, looked up): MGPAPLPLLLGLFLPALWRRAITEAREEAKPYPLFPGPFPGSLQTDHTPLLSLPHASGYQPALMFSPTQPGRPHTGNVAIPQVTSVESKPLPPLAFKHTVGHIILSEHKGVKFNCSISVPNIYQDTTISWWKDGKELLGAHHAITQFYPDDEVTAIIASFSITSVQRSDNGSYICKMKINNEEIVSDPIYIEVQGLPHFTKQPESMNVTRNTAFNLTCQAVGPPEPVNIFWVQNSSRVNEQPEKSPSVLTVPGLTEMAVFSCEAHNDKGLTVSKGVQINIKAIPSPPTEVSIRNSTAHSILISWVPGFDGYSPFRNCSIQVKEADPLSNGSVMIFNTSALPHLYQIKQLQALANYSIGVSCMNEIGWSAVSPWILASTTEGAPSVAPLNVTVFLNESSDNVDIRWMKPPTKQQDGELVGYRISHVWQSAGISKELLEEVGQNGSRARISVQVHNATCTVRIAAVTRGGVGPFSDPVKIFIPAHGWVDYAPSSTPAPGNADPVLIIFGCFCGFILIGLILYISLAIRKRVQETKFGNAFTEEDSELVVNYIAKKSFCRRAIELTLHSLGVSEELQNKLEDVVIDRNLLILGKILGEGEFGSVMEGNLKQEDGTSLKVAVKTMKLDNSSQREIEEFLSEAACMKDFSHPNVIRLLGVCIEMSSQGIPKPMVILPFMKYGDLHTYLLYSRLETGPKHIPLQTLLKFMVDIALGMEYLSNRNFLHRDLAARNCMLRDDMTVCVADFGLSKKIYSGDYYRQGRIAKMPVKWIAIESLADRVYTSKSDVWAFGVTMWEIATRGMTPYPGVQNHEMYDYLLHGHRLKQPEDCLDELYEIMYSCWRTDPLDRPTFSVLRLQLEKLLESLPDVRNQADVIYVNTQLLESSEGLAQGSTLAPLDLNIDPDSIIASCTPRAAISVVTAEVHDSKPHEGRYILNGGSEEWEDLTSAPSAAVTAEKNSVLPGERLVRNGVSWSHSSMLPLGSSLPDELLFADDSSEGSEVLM
Sequence of Fyn (P06241 whole entry, looked up): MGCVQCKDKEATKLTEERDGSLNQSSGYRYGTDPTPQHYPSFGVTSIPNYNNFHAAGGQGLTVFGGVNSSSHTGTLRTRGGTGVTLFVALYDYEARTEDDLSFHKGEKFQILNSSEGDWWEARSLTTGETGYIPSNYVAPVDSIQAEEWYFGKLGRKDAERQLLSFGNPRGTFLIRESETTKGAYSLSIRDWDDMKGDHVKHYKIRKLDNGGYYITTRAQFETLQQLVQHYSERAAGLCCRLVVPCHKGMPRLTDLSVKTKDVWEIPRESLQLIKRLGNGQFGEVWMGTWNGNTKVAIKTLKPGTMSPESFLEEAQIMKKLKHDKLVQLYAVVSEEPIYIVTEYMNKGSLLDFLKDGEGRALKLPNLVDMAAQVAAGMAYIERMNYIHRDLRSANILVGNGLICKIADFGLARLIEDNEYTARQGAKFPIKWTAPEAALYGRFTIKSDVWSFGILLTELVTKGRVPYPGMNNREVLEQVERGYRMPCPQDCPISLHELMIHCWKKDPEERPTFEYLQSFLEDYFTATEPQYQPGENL

Row | Sequence | phosphorylation enrichment (MERTK) | phosphorylation enrichment (c-Abl (mouse)) | phosphorylation enrichment (Fyn) | phosphorylation enrichment (FGFR3) | phosphorylation enrichment (Fes) | phosphorylation enrichment (FGFR1) | phosphorylation enrichment (EPHB2) | phosphorylation enrichment (c-Src) | phosphorylation enrichment (AncSZ) | phosphorylation enrichment (Fer (mouse)) | phosphorylation enrichment (Jak2) | phosphorylation enrichment (EPHB1) | phosphorylation enrichment (Hck) | SH2 binding enrichment (c-Src SH2) | SH2 binding enrichment (SHP2-C SH2) | SH2 binding enrichment (Grb2 SH2)
1 | AACQHYGVHTC [NR4A2_Y275_R278H] | 0.406 | 0.534 | 0.433 | 0.585 | 0.63 | 0.413 | 0.471 | 0.345 | 0.624 | 0.347 | 0.432 | 0.445 | 0.443 | 0.584 | 0.946 | 0.903
2 | AAGGRYFGLVG [HARS1_Y363_D364Y_YF] | 0.395 | 0.626 | 0.396 | 0.471 | 0.764 | 0.375 | 0.377 | 0.461 | 0.516 | 0.389 | 0.575 | 0.312 | 0.354 | 0.608 | 0.828 | 1.06
3 | AALLNYKAGRD [GRIN2A_Y737_V734L] | 0.468 | 0.454 | 0.494 | 0.494 | 0.687 | 0.508 | 0.465 | 0.472 | 0.623 | 0.384 | 0.508 | 0.409 | 0.527 | 0.523 | 0.762 | 0.861
4 | AAVDEYLEHRR [FAM221A_Y17_Y20H] | 0.388 | 0.778 | 0.48 | 0.695 | 1.03 | 0.467 | 0.581 | 0.389 | 0.96 | 0.421 | 0.875 | 0.562 | 0.452 | 0.418 | 0.614 | 0.786
5 | AAVPAYDKIRV [STXBP2_Y401] | 0.48 | 0.569 | 0.344 | 0.541 | 0.714 | 0.321 | 0.355 | 0.452 | 0.64 | 2.02 | 0.874 | 0.372 | 1.36 | 4.85 | 0.503 | 0.803
6 | ADARMCGVLPW [PLP1_Y207_Y207C] | 0.436 | 0.746 | 0.436 | 0.671 | 1 | 0.489 | 0.524 | 0.487 | 0.93 | 0.44 | 1.1 | 0.606 | 0.488 | 0.477 | 0.527 | 0.751
7 | ADARMYGVLLW [PLP1_Y207_P211L] | 0.544 | 0.741 | 3.59 | 0.751 | 1.39 | 0.591 | 0.662 | 4.01 | 1.12 | 0.616 | 1.03 | 0.559 | 2.42 | 0.327 | 0.519 | 0.573
8 | ADKAAYLQSLN [MYH2_Y389] | 0.476 | 0.546 | 0.536 | 0.572 | 0.789 | 0.506 | 0.561 | 0.45 | 0.779 | 0.539 | 0.777 | 0.458 | 0.516 | 0.553 | 0.8 | 0.86
9 | AEDKPYAELWM [MPI_Y46] | 1.4 | 0.854 | 2.27 | 1.34 | 1.34 | 1.45 | 0.729 | 3.47 | 1.38 | 10.8 | 1.09 | 0.868 | 1.44 | 2.15 | 1.21 | 0.778
10 | AEEEIYGIFGA [SRCtide_2014] | 3.88 | 3.69 | 5.63 | 0.89 | 1.31 | 0.615 | 1.36 | 4.49 | 2.1 | 3 | 1.35 | 1.36 | 4.39 | 0.494 | 0.584 | 0.775
11 | AESPEYVHMYT [FAM111A_Y511] | 0.413 | 0.825 | 0.423 | 1.26 | 1.01 | 1.92 | 0.491 | 0.531 | 1.34 | 0.467 | 0.962 | 0.486 | 0.469 | 0.693 | 0.586 | 0.768
12 | AFLQTYAHEVS [PCDHGA5_Y753_S754A] | 0.503 | 0.693 | 0.49 | 0.617 | 0.985 | 0.621 | 0.565 | 0.474 | 0.896 | 0.521 | 0.786 | 0.455 | 0.506 | 0.608 | 0.903 | 0.755
13 | AFSLKYDQQTQ [SYTL4_Y366_E367D] | 0.406 | 0.716 | 0.522 | 0.784 | 1.14 | 0.539 | 0.69 | 0.48 | 1.03 | 0.485 | 1.03 | 0.484 | 0.614 | 0.555 | 0.64 | 0.824
14 | AGDGRYEVLFL [SEMA3F_Y478_A474G] | 1.08 | 0.758 | 0.455 | 0.786 | 1.02 | 0.533 | 0.667 | 0.545 | 0.94 | 4.36 | 0.927 | 0.658 | 0.772 | 7.93 | 0.573 | 0.692
15 | AGQKDYDRLRP [RAC3_Y64_E62K] | 0.358 | 0.627 | 0.52 | 0.572 | 0.761 | 0.462 | 0.543 | 0.36 | 0.662 | 0.787 | 0.546 | 0.501 | 0.47 | 0.63 | 0.688 | 0.953
16 | AGRSGYDNREI [BCL2_Y9_T7S] | 0.366 | 0.551 | 0.426 | 0.49 | 0.635 | 0.366 | 0.409 | 0.394 | 0.574 | 0.32 | 0.52 | 0.386 | 0.441 | 0.494 | 0.757 | 0.731
17 | AGTILYHAHLD [ASS1_Y291] | 0.561 | 0.509 | 0.479 | 0.497 | 0.703 | 0.535 | 0.78 | 0.451 | 0.591 | 0.398 | 0.495 | 0.526 | 0.523 | 0.477 | 0.74 | 0.949

Row | Sequence | phosphorylation enrichment (MERTK) | phosphorylation enrichment (c-Abl (mouse)) | phosphorylation enrichment (Fyn) | phosphorylation enrichment (FGFR3) | phosphorylation enrichment (Fes) | phosphorylation enrichment (FGFR1) | phosphorylation enrichment (EPHB2) | phosphorylation enrichment (c-Src) | phosphorylation enrichment (AncSZ) | phosphorylation enrichment (Fer (mouse)) | phosphorylation enrichment (Jak2) | phosphorylation enrichment (EPHB1) | phosphorylation enrichment (Hck) | SH2 binding enrichment (c-Src SH2) | SH2 binding enrichment (SHP2-C SH2) | SH2 binding enrichment (Grb2 SH2)
18 | AHAGEYGAVAL [HBA1_Y25_E28V] | 0.389 | 0.517 | 5.54 | 0.509 | 0.594 | 0.421 | 0.582 | 2.95 | 0.598 | 0.672 | 0.511 | 0.346 | 3.27 | 0.486 | 0.6 | 0.88
19 | AHPIIYEIIEA [PYKtide_E_2014] | 11.6 | 2.94 | 9.6 | 1.59 | 5.96 | 2.02 | 20.4 | 8.32 | 1.93 | 16.2 | 1.16 | 22.3 | 9.98 | 0.872 | 1.07 | 1.18
20 | AIDVGYRLIDC [AKR1B1_Y40_H42L] | 0.39 | 0.861 | 0.428 | 0.594 | 1.2 | 0.514 | 0.45 | 0.512 | 0.874 | 0.424 | 0.792 | 0.456 | 0.417 | 2.02 | 0.7 | 0.993
21 | ALAHKCHGGGG [HBB_Y146_Y146C] | 0.469 | 0.758 | 0.414 | 0.546 | 0.755 | 0.428 | 0.397 | 0.563 | 0.673 | 0.458 | 0.862 | 0.473 | 0.45 | 0.538 | 0.761 | 0.829
22 | ALAPKYHGGGG [HBB_Y146_H144P] | 0.386 | 0.423 | 0.31 | 0.248 | 0.506 | 0.327 | 0.356 | 0.389 | 0.314 | 0.332 | 0.423 | 0.315 | 0.348 | 0.341 | 0.411 | 0.607
23 | ALKKPYGVLFK [RPF2_Y59_YF] | 0.528 | 0.712 | 0.562 | 0.518 | 0.722 | 0.404 | 0.502 | 0.777 | 0.765 | 0.403 | 0.73 | 0.469 | 0.632 | 1.76 | 2.29 | 2.15
24 | ALMGPYHGQVL [HADHA_Y343_L342P] | 0.335 | 0.61 | 0.336 | 0.436 | 0.537 | 0.411 | 0.41 | 0.46 | 0.544 | 0.336 | 0.485 | 0.366 | 0.384 | 0.433 | 1.03 | 0.77
25 | ALPGEYIPTVF [RAC1_Y32_F28L] | 0.426 | 0.7 | 0.612 | 0.697 | 1.16 | 0.573 | 0.595 | 0.514 | 1.1 | 0.46 | 1.12 | 0.585 | 0.492 | 0.509 | 0.643 | 0.697
26 | ALWYIYLHTRS [ENG_Y614_S615L] | 0.352 | 0.733 | 0.432 | 0.821 | 1.39 | 0.62 | 0.476 | 0.331 | 1.1 | 0.514 | 1.09 | 0.542 | 0.384 | 0.521 | 0.607 | 0.641
27 | ANFAKYGNPNE [BCHE_Y505] | 0.361 | 0.357 | 0.307 | 0.426 | 0.549 | 0.462 | 0.331 | 0.461 | 0.561 | 0.406 | 0.372 | 0.384 | 0.362 | 0.382 | 0.6 | 0.784
28 | ANFTEYVATSW [CDKL5_Y171_R175S_YF] | 0.512 | 0.892 | 0.555 | 0.983 | 1.03 | 1.03 | 0.988 | 0.578 | 0.983 | 0.505 | 0.974 | 0.841 | 0.511 | 0.545 | 0.809 | 0.757
29 | ANNEFYFQVCA | 0.43 | 0.818 | 0.478 | 0.939 | 1.37 | 0.755 | 0.588 | 0.486 | 1.26 | 0.601 | 1.25 | 0.656 | 0.536 | 0.337 | 0.662 | 0.741
30 | AQADIYKANFQ [IKBKG_Y308_D311N] | 0.461 | 0.761 | 0.536 | 0.573 | 0.81 | 0.389 | 0.408 | 0.799 | 0.586 | 0.461 | 0.829 | 0.361 | 0.659 | 0.504 | 0.729 | 0.873
31 | AQRKLYRNVML [ZNF569_Y33] | 0.47 | 0.482 | 0.41 | 0.372 | 0.583 | 0.4 | 0.287 | 0.535 | 0.566 | 0.373 | 0.629 | 0.412 | 0.481 | 0.728 | 0.82 | 1.26
32 | ARDVIYIIIPA [FRKtide_2014] | 2.21 | 1.17 | 0.873 | 2 | 1.36 | 2.92 | 0.986 | 1.52 | 1.31 | 0.559 | 1.42 | 2.48 | 1.23 | 1.44 | 2.09 | 1.82
33 | MSLRSYGSWEG [APC_Y96_R99W] | 0.047 | 0.273 | 0.633 | 0.671 | 0.881 | 0.034 | 0.338 | 0.705 | 1.32 |  | 0.793 | 0.581 | 0.459 | 0.282 | 0.412 | 0.45
34 | RETLTYAQAQG [BRD1_Y33_R38G] | 0.391 | 0.418 | 0.551 | 0.149 | 0.448 | 0.916 | 0.934 | 0.768 | 0.579 | 0.383 |  |  | 0.982 |  |  | 
